The values below come from the array DNA melting data of Ke et al..

A short description of this data set: melting temperature; melt of duplexes. Particulars: sodium 0.0675 M; strand 1 µM.
Regarding “CGACGTGCAGTATGTGCTG+CAGCACATCTGGCACGTCG ((((((((...((((((((+))))))))...))))))))”, the Tm came out at 51.4 °C.
As for “CGACGTGCAGTATGTGCTG+CAGCACATGAAGCACGTCG ((((((((...((((((((+))))))))...))))))))”, the figure is 50.5 °C; as for “CGACGTGCGCGATGTGCTG+CAGCACATTTTGCACGTCG ((((((((...((((((((+))))))))...))))))))”, 48.9 °C.
As for “CGACGTGCATAATGTGCTG+CAGCACATGCAGCACGTCG ((((((((...((((((((+))))))))...))))))))”, the figure is 51.4 °C.
As for “CGACGTGCATTATGTGCTG+CAGCACATGCTGCACGTCG (((((((((..((((((((+))))))))..)))))))))”, the Tm was 49 °C.
As for “CGACGTGCGGAATGTGCTG+CAGCACATGCTGCACGTCG ((((((((.(.((((((((+)))))))).).))))))))”, the figure is 54.7 °C.
As for “CGACGTGCACTATGTGCTG+CAGCACATCCAGCACGTCG ((((((((...((((((((+))))))))...))))))))”, the figure is 42.6 °C.
As for “CGACGTGCAATATGTGCTG+CAGCACATGTAGCACGTCG ((((((((.(.((((((((+)))))))).).))))))))”, the figure is 52 °C; as for “CGACGTGCATAATGTGCTG+CAGCACATGCCGCACGTCG ((((((((...((((((((+))))))))...))))))))”, 50.9 °C.
In the case of “CGACGTGCTTAATGTGCTG+CAGCACATTGGGCACGTCG ((((((((..(((((((((+)))))))))..))))))))”, the Tm amounted to 53.5 °C.
For the substance “CGACGTGCGATATGTGCTG+CAGCACATAGAGCACGTCG ((((((((..(((((((((+)))))))))..))))))))”, the Tm came out at 58.5 °C.
Take “CGACGTGCCGTATGTGCTG+CAGCACATACTGCACGTCG ((((((((.((((((((((+)))))))))).))))))))”: the midpoint of thermal melting (Tm) turned out to be 56.9 °C.
As for “CGACGTGCAGTATGTGCTG+CAGCACATACCGCACGTCG ((((((((.((((((((((+)))))))))).))))))))”, the figure is 55.7 °C.
Take “CGACGTGCGTGATGTGCTG+CAGCACATCGGGCACGTCG ((((((((..(((((((((+)))))))))..))))))))”: the Tm came to 57.5 °C.
“CGACGTGCCAAATGTGCTG+CAGCACATATCGCACGTCG ((((((((.(.((((((((+)))))))).).))))))))”: the Tm was determined as 47.2 °C.
Regarding “CGACGTGCAGCATGTGCTG+CAGCACATATAGCACGTCG ((((((((...((((((((+))))))))...))))))))”, the midpoint of thermal melting (Tm) is 46.3 °C.
Then “CGACGTGCTACATGTGCTG+CAGCACATTAGGCACGTCG ((((((((...((((((((+))))))))...))))))))”, with 50.5 °C; and “CGACGTGCTTGATGTGCTG+CAGCACATGCAGCACGTCG (((((((((..((((((((+))))))))..)))))))))”, with 51.8 °C.
On to “CGACGTGCCGGATGTGCTG+CAGCACATCGCGCACGTCG ((((((((..(((((((((+)))))))))..))))))))”, for which the Tm was 55.4 °C.
Then “CGACGTGCTCAATGTGCTG+CAGCACATCAAGCACGTCG (((((((((..((((((((+))))))))..)))))))))”, with 51.6 °C; and “CGACGTGCTGTATGTGCTG+CAGCACATGTCGCACGTCG ((((((((...((((((((+))))))))...))))))))”, with 49.3 °C.
For the substance “CGACGTGCATTATGTGCTG+CAGCACATAGAGCACGTCG ((((((((..(((((((((+)))))))))..))))))))”, the Tm was determined as 51.2 °C.
For “CGACGTGCCACATGTGCTG+CAGCACATCCGGCACGTCG (((((((((..((((((((+))))))))..)))))))))”, the Tm stood at 52.6 °C.
Take “CGACGTGCTGGATGTGCTG+CAGCACATCGTGCACGTCG ((((((((..(((((((((+)))))))))..))))))))”: the Tm turned out to be 53.2 °C.
For “CGACGTGCGAAATGTGCTG+CAGCACATCCCGCACGTCG (((((((((..((((((((+))))))))..)))))))))”, the Tm was determined as 52.9 °C.
As for “CGACGTGCCATATGTGCTG+CAGCACATAGCGCACGTCG ((((((((..(((((((((+)))))))))..))))))))”, the figure is 50 °C; as for “CGACGTGCTTTATGTGCTG+CAGCACATGAAGCACGTCG ((((((((((.((((((((+)))))))).))))))))))”, 57.3 °C.
Turning to “CGACGTGCCTCATGTGCTG+CAGCACATAGAGCACGTCG ((((((((...((((((((+))))))))...))))))))”, the Tm was determined as 51.6 °C.
As for “CGACGTGCTTGATGTGCTG+CAGCACATATAGCACGTCG (((((((((..((((((((+))))))))..)))))))))”, the figure is 54 °C; as for “CGACGTGCAGTATGTGCTG+CAGCACATCTAGCACGTCG ((((((((...((((((((+))))))))...))))))))”, 50.8 °C.
For the substance “CGACGTGCATCATGTGCTG+CAGCACATATGGCACGTCG ((((((((...((((((((+))))))))...))))))))”, the Tm is 48.8 °C.
Take “CGACGTGCTTTATGTGCTG+CAGCACATGCCGCACGTCG ((((((((...((((((((+))))))))...))))))))”: the Tm was 46.7 °C.
As for “CGACGTGCCAGATGTGCTG+CAGCACATTAAGCACGTCG ((((((((...((((((((+))))))))...))))))))”, the figure is 50.7 °C.
Then “CGACGTGCGCGATGTGCTG+CAGCACATGCTGCACGTCG ((((((((...((((((((+))))))))...))))))))”, with 52.9 °C; and “CGACGTGCATAATGTGCTG+CAGCACATTCCGCACGTCG ((((((((..(((((((((+)))))))))..))))))))”, with 50.2 °C.
On to “CGACGTGCCTGATGTGCTG+CAGCACATAATGCACGTCG ((((((((.(.((((((((+)))))))).).))))))))”, for which the Tm came out at 49.9 °C.
With “CGACGTGCGGGATGTGCTG+CAGCACATCATGCACGTCG ((((((((..(((((((((+)))))))))..))))))))”, the Tm stood at 57 °C.
Regarding “CGACGTGCGCCATGTGCTG+CAGCACATATAGCACGTCG ((((((((...((((((((+))))))))...))))))))”, the Tm was determined as 52.4 °C.
Regarding “CGACGTGCGATATGTGCTG+CAGCACATCAAGCACGTCG ((((((((...((((((((+))))))))...))))))))”, the Tm was found to be 52.1 °C.
Then “CGACGTGCTTTATGTGCTG+CAGCACATACCGCACGTCG ((((((((..(((((((((+)))))))))..))))))))”, with 48.3 °C; and “CGACGTGCGATATGTGCTG+CAGCACATGGTGCACGTCG ((((((((...((((((((+))))))))...))))))))”, with 49.2 °C; and “CGACGTGCTACATGTGCTG+CAGCACATCGCGCACGTCG ((((((((...((((((((+))))))))...))))))))”, with 46.9 °C.
Then “CGACGTGCAGAATGTGCTG+CAGCACATGTGGCACGTCG ((((((((...((((((((+))))))))...))))))))”, with 51.7 °C; and “CGACGTGCGGTATGTGCTG+CAGCACATTCAGCACGTCG ((((((((.(.((((((((+)))))))).).))))))))”, with 54.2 °C.
On to “CGACGTGCTACATGTGCTG+CAGCACATGGCGCACGTCG ((((((((..(((((((((+)))))))))..))))))))”, for which the Tm is 54.7 °C.
On to “CGACGTGCATCATGTGCTG+CAGCACATTGAGCACGTCG ((((((((...((((((((+))))))))...))))))))”, for which the melting temperature (Tm) came out at 50.2 °C.
Then “CGACGTGCCGAATGTGCTG+CAGCACATCCAGCACGTCG ((((((((.(.((((((((+)))))))).).))))))))”, with 49.8 °C; and “CGACGTGCTACATGTGCTG+CAGCACATTTTGCACGTCG ((((((((.(.((((((((+)))))))).).))))))))”, with 50.4 °C.
As for “CGACGTGCTCAATGTGCTG+CAGCACATGAGGCACGTCG ((((((((...((((((((+))))))))...))))))))”, the Tm is 53 °C.
With “CGACGTGCGGTATGTGCTG+CAGCACATTATGCACGTCG ((((((((...((((((((+))))))))...))))))))”, the Tm was found to be 51.3 °C.
Then “CGACGTGCTCCATGTGCTG+CAGCACATCGAGCACGTCG ((((((((((.((((((((+)))))))).))))))))))”, with 55.2 °C; and “CGACGTGCGTCATGTGCTG+CAGCACATGACGCACGTCG (((((((((((((((((((+)))))))))))))))))))”, with 66.4 °C.
Then “CGACGTGCAACATGTGCTG+CAGCACATCCAGCACGTCG ((((((((...((((((((+))))))))...))))))))”, with 47.1 °C.
As for “CGACGTGCTATATGTGCTG+CAGCACATAGGGCACGTCG ((((((((..(((((((((+)))))))))..))))))))”, the figure is 53.2 °C; as for “CGACGTGCTTCATGTGCTG+CAGCACATAGCGCACGTCG ((((((((...((((((((+))))))))...))))))))”, 47.4 °C; as for “CGACGTGCGGGATGTGCTG+CAGCACATGCAGCACGTCG ((((((((.(.((((((((+)))))))).).))))))))”, 57.2 °C.
As for “CGACGTGCCACATGTGCTG+CAGCACATCGTGCACGTCG ((((((((...((((((((+))))))))...))))))))”, the Tm is 46.3 °C.
As for “CGACGTGCTCGATGTGCTG+CAGCACATCGAGCACGTCG (((((((((((((((((((+)))))))))))))))))))”, the figure is 66.6 °C.
Then “CGACGTGCACTATGTGCTG+CAGCACATGACGCACGTCG ((((((((...((((((((+))))))))...))))))))”, with 44.6 °C; and “CGACGTGCTACATGTGCTG+CAGCACATACGGCACGTCG ((((((((...((((((((+))))))))...))))))))”, with 48.8 °C; and “CGACGTGCAGCATGTGCTG+CAGCACATCCCGCACGTCG ((((((((.(.((((((((+)))))))).).))))))))”, with 46.3 °C.
As for “CGACGTGCCAAATGTGCTG+CAGCACATGTTGCACGTCG ((((((((.(.((((((((+)))))))).).))))))))”, the Tm amounted to 50.5 °C.
Take “CGACGTGCTAAATGTGCTG+CAGCACATCACGCACGTCG ((((((((...((((((((+))))))))...))))))))”: the Tm was determined as 49 °C.
“CGACGTGCCCCATGTGCTG+CAGCACATGCTGCACGTCG ((((((((..(((((((((+)))))))))..))))))))”: the Tm amounted to 49.7 °C.
“CGACGTGCATCATGTGCTG+CAGCACATTTGGCACGTCG ((((((((...((((((((+))))))))...))))))))”: the Tm turned out to be 48.2 °C.
As for “CGACGTGCAATATGTGCTG+CAGCACATCGTGCACGTCG (((((((((..((((((((+))))))))..)))))))))”, the figure is 45.9 °C.

As a reminder, the Tm is the temperature at which the thermal transition is half complete.
